Molecular target: CycN cytochrome c protein (Pseudomonas putida S16) (Pseudomonas putida S16)
Test: anaerobic stopped-flow spectrophotometry at 542 nm, 4 °C; NicA2-Flred mixed with excess CycNox; linear fit of first-phase kobs against CycNox concentration, said to report on the bimolecular association of the two proteins

kon: 1.3e+06 M⁻¹ s⁻¹
B1: NicA2 nicotine oxidoreductase (wild-type, Pseudomonas putida S16) (enzyme)
chain: TQKTNRASTVKGGFDYDVVVVGGGFAGATAARECGLQGYRTLLLEARSRLGGRTFTSRFAGQEIEFGGAWVHWLQPHVWAEMQRYGLGVVEDPLTNLDKTLIMYNDGSVESISPDEFGKNIRIAFEKLCHDAWEVFPRPHEPMFTERARELDKSSVLDRIKTLGLSRLQQAQINSYMALYAGETTDKFGLPGVLKLFACGGWNYDAFMDTETHYRIQGGTIGLINAMLTDSGAEVRMSVPVTAVEQVNGGVKIKTDDDEIITAGVVVMTVPLNTYKHIGFTPALSKGKQRFIKEGQLSKGAKLYVHVKQNLGRVFAFADEQQPLNWVQTHDYSDELGTILSITIARKETIDVNDRDAVTREVQKMFPGVEVLGTAAYDWTADPFSLGAWAAYGVGQLSRLKDLQAAEGRILFAGAETSNGWHANIDGAVESGLRAGREVKQLLS

From patent US20230212533A1, “PRODUCTS AND METHODS FOR THE TREATMENT OF NICOTINE DEPENDENCE” (THE REGENTS OF THE UNIVERSITY OF MICHIGAN, priority 2020, published 2023)
